The source of these data is patent US20170266254A1 (AILERON THERAPEUTICS, published 2017).

For the test, the target named is T1, C-terminally 6x Histidine-tagged Beta-Catenin (aa 134-668, 59 KD) (UniProt P35222 134-668).
T1 construct: range 134-668; Armadillo repeat region
T1 sequence: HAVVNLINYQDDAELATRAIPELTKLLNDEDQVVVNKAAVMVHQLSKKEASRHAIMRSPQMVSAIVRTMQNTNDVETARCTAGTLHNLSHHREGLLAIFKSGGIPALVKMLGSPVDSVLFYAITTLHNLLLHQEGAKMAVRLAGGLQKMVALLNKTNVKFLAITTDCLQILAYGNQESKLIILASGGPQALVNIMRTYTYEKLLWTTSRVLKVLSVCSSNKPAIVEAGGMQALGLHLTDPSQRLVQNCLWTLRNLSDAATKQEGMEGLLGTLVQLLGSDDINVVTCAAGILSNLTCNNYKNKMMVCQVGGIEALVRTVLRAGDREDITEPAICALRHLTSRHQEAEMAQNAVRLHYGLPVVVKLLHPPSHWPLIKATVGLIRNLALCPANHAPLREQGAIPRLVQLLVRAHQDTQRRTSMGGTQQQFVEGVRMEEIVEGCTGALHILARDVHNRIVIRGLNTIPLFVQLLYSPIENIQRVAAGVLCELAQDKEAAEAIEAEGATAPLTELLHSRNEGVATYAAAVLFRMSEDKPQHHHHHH
As to the kind of experiment: competitive fluorescence polarization, FAM-labelled linear probe as competitor, His-tagged beta-catenin 134-668. In a few lines:
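FP competition in 25 mM Tris-HCl pH 7.5, 200 mM NaCl, 5 mM CHAPS, 2 mM DTT at room temperature. Competitor peptides at 40–0.7 μM 2× working range, constant DMSO. Probe (benchmark peptide with N-terminal FAM via β-Ala spacer) from 25 nM 10× stock. Read after 3 h in the dark, ex 485/em 528 nm.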

Bridges are numbered along the chain shown (N, C = ends). [ ]: non-standard residue; d: D form. R8 = C=CCCCCCC[C@@](C)(N)C(=O)O; S5 = C=CCCC[C@](C)(N)C(=O)O

B1: SP19 (peptide)
peptide: Ac-LGANDELISFKDEGE[S5]EEK[S5]SN-NH2
modifications: staple 16-20
SMILES: CC[C@H](C)[C@H](NC(=O)[C@H](CC(C)C)NC(=O)[C@H](CCC(=O)O)NC(=O)[C@H](CC(=O)O)NC(=O)[C@H](CC(N)=O)NC(=O)[C@H](C)NC(=O)CNC(=O)[C@H](CC(C)C)NC(C)=O)C(=O)N[C@@H](CO)C(=O)N[C@@H](Cc1ccccc1)C(=O)N[C@@H](CCCCN)C(=O)N[C@@H](CC(=O)O)C(=O)N[C@@H](CCC(=O)O)C(=O)NCC(=O)N[C@@H](CCC(=O)O)C(=O)N[C@@]1(C)CCCC=CCCC[C@@](C)(C(=O)N[C@@H](CO)C(=O)N[C@@H](CC(N)=O)C(N)=O)NC(=O)[C@H](CCCCN)NC(=O)[C@H](CCC(=O)O)NC(=O)[C@H](CCC(=O)O)NC1=O
In the case of B1, the IC50 was at least 100 µM.

B2: SP21 (peptide)
peptide: Ac-LGANDELISFK[R8]EGEQEE[S5]SSN-NH2
modifications: staple 12-19
SMILES: CC[C@H](C)[C@H](NC(=O)[C@H](CC(C)C)NC(=O)[C@H](CCC(=O)O)NC(=O)[C@H](CC(=O)O)NC(=O)[C@H](CC(N)=O)NC(=O)[C@H](C)NC(=O)CNC(=O)[C@H](CC(C)C)NC(C)=O)C(=O)N[C@@H](CO)C(=O)N[C@@H](Cc1ccccc1)C(=O)N[C@@H](CCCCN)C(=O)N[C@]1(C)CCCCCCC=CCCC[C@@](C)(C(=O)N[C@@H](CO)C(=O)N[C@@H](CO)C(=O)N[C@@H](CC(N)=O)C(N)=O)NC(=O)[C@H](CCC(=O)O)NC(=O)[C@H](CCC(=O)O)NC(=O)[C@H](CCC(N)=O)NC(=O)[C@H](CCC(=O)O)NC(=O)CNC(=O)[C@H](CCC(=O)O)NC1=O
Regarding B2, the IC50 stood at 23.9 µM.

B3: SP41 (peptide)
peptide: Ac-LGANDELISF[S5]DEG[S5]QEQKSSN-NH2
modifications: staple 11-15
SMILES: CC[C@H](C)[C@H](NC(=O)[C@H](CC(C)C)NC(=O)[C@H](CCC(=O)O)NC(=O)[C@H](CC(=O)O)NC(=O)[C@H](CC(N)=O)NC(=O)[C@H](C)NC(=O)CNC(=O)[C@H](CC(C)C)NC(C)=O)C(=O)N[C@@H](CO)C(=O)N[C@@H](Cc1ccccc1)C(=O)N[C@@]1(C)CCCC=CCCC[C@@](C)(C(=O)N[C@@H](CCC(N)=O)C(=O)N[C@@H](CCC(=O)O)C(=O)N[C@@H](CCC(N)=O)C(=O)N[C@@H](CCCCN)C(=O)N[C@@H](CO)C(=O)N[C@@H](CO)C(=O)N[C@@H](CC(N)=O)C(N)=O)NC(=O)CNC(=O)[C@H](CCC(=O)O)NC(=O)[C@H](CC(=O)O)NC1=O
As for B3, the IC50 turned out to be 19.5 µM.

B4: SP20 (peptide)
peptide: Ac-LGANDELISF[R8]DEGEQE[S5]KSSN-NH2
modifications: staple 11-18
SMILES: CC[C@H](C)[C@H](NC(=O)[C@H](CC(C)C)NC(=O)[C@H](CCC(=O)O)NC(=O)[C@H](CC(=O)O)NC(=O)[C@H](CC(N)=O)NC(=O)[C@H](C)NC(=O)CNC(=O)[C@H](CC(C)C)NC(C)=O)C(=O)N[C@@H](CO)C(=O)N[C@@H](Cc1ccccc1)C(=O)N[C@]1(C)CCCCCCC=CCCC[C@@](C)(C(=O)N[C@@H](CCCCN)C(=O)N[C@@H](CO)C(=O)N[C@@H](CO)C(=O)N[C@@H](CC(N)=O)C(N)=O)NC(=O)[C@H](CCC(=O)O)NC(=O)[C@H](CCC(N)=O)NC(=O)[C@H](CCC(=O)O)NC(=O)CNC(=O)[C@H](CCC(=O)O)NC(=O)[C@H](CC(=O)O)NC1=O
Take B4: the half-inhibitory concentration (IC50) is at least 100 µM.

B5: SP45 (peptide)
peptide: Ac-LGANDELISF[S5]DQG[S5]QEQKSSN-NH2
modifications: staple 11-15
SMILES: CC[C@H](C)[C@H](NC(=O)[C@H](CC(C)C)NC(=O)[C@H](CCC(=O)O)NC(=O)[C@H](CC(=O)O)NC(=O)[C@H](CC(N)=O)NC(=O)[C@H](C)NC(=O)CNC(=O)[C@H](CC(C)C)NC(C)=O)C(=O)N[C@@H](CO)C(=O)N[C@@H](Cc1ccccc1)C(=O)N[C@@]1(C)CCCC=CCCC[C@@](C)(C(=O)N[C@@H](CCC(N)=O)C(=O)N[C@@H](CCC(=O)O)C(=O)N[C@@H](CCC(N)=O)C(=O)N[C@@H](CCCCN)C(=O)N[C@@H](CO)C(=O)N[C@@H](CO)C(=O)N[C@@H](CC(N)=O)C(N)=O)NC(=O)CNC(=O)[C@H](CCC(N)=O)NC(=O)[C@H](CC(=O)O)NC1=O
Turning to B5, the IC50 amounted to 10.9 µM.

B6: SP39 (peptide)
peptide: Ac-LGANDELISF[S5]DQG[S5]QEEKSSN-NH2
modifications: staple 11-15
SMILES: CC[C@H](C)[C@H](NC(=O)[C@H](CC(C)C)NC(=O)[C@H](CCC(=O)O)NC(=O)[C@H](CC(=O)O)NC(=O)[C@H](CC(N)=O)NC(=O)[C@H](C)NC(=O)CNC(=O)[C@H](CC(C)C)NC(C)=O)C(=O)N[C@@H](CO)C(=O)N[C@@H](Cc1ccccc1)C(=O)N[C@@]1(C)CCCC=CCCC[C@@](C)(C(=O)N[C@@H](CCC(N)=O)C(=O)N[C@@H](CCC(=O)O)C(=O)N[C@@H](CCC(=O)O)C(=O)N[C@@H](CCCCN)C(=O)N[C@@H](CO)C(=O)N[C@@H](CO)C(=O)N[C@@H](CC(N)=O)C(N)=O)NC(=O)CNC(=O)[C@H](CCC(N)=O)NC(=O)[C@H](CC(=O)O)NC1=O
With B6, the IC50 is 3.08 µM.

B7: SP40 (peptide)
peptide: Ac-LGANDELISF[S5]DEG[S5]QQEKSSN-NH2
modifications: staple 11-15
SMILES: CC[C@H](C)[C@H](NC(=O)[C@H](CC(C)C)NC(=O)[C@H](CCC(=O)O)NC(=O)[C@H](CC(=O)O)NC(=O)[C@H](CC(N)=O)NC(=O)[C@H](C)NC(=O)CNC(=O)[C@H](CC(C)C)NC(C)=O)C(=O)N[C@@H](CO)C(=O)N[C@@H](Cc1ccccc1)C(=O)N[C@@]1(C)CCCC=CCCC[C@@](C)(C(=O)N[C@@H](CCC(N)=O)C(=O)N[C@@H](CCC(N)=O)C(=O)N[C@@H](CCC(=O)O)C(=O)N[C@@H](CCCCN)C(=O)N[C@@H](CO)C(=O)N[C@@H](CO)C(=O)N[C@@H](CC(N)=O)C(N)=O)NC(=O)CNC(=O)[C@H](CCC(=O)O)NC(=O)[C@H](CC(=O)O)NC1=O
On to B7, for which the IC50 came out at 6.63 µM.

B8: SP44 (peptide)
peptide: Ac-LGANDELISF[S5]DQG[S5]QQEKSSN-NH2
modifications: staple 11-15
SMILES: CC[C@H](C)[C@H](NC(=O)[C@H](CC(C)C)NC(=O)[C@H](CCC(=O)O)NC(=O)[C@H](CC(=O)O)NC(=O)[C@H](CC(N)=O)NC(=O)[C@H](C)NC(=O)CNC(=O)[C@H](CC(C)C)NC(C)=O)C(=O)N[C@@H](CO)C(=O)N[C@@H](Cc1ccccc1)C(=O)N[C@@]1(C)CCCC=CCCC[C@@](C)(C(=O)N[C@@H](CCC(N)=O)C(=O)N[C@@H](CCC(N)=O)C(=O)N[C@@H](CCC(=O)O)C(=O)N[C@@H](CCCCN)C(=O)N[C@@H](CO)C(=O)N[C@@H](CO)C(=O)N[C@@H](CC(N)=O)C(N)=O)NC(=O)CNC(=O)[C@H](CCC(N)=O)NC(=O)[C@H](CC(=O)O)NC1=O
B8: the IC50 amounted to 3.75 µM.
